Laboratory results taken from article PMC9426524.

Substrate: CC(=O)C=O
Experiment: purified protein

B1: (Homo sapiens) (protein)
chain: MASKRALVILAKGAEEMETVIPVDVMRRAGIKVTVAGLAGKDPVQCSRDVVICPDASLEDAKKEGPYDVVVLPGGNLGAQNLSESAAVKEILKEQENRKGLIAAICAGPTALLAHEIGFGSKVTTHPLAKDKMMNGGHYTYSENRVEKDGLILTSRGPGTSFEFALAIVEALNGKEVAAQVKAPLVLKD
In the case of B1, the Km is reported as 340 ± 40 µM and the kcat is reported as 0.126 ± 0.004 s⁻¹.
